The subject of the experiment is mutant form of α-Gal A expressed in HEK-293 cells. Briefly: HEK assay (GLP HEK / Migalastat Amenability Assay): α-Gal A activity in lysates of transiently transfected HEK-293 cells incubated with or without 10 μM migalastat. The experiment is classed as cell-based, human. The settings on record: for Absolute increase (% WT) / Relative increase: 10 μM migalastat versus baseline; for Baseline α-Gal A activity (% WT): absence of migalastat; for Baseline α-Gal A activity (% WT) / 10 μM migalastat α-Gal A activity (% WT): percentage of baseline wild-type α-Gal A activity; for Baseline α-Gal A activity (% WT) / Baseline α-Gal A activity / 10 μM migalastat α-Gal A activity / 10 μM migalastat α-Gal A activity (% WT): mean ± SEM; for Baseline α-Gal A activity / 10 μM migalastat α-Gal A activity: lysates of HEK-293 cells transiently transfected with the mutant form; for Baseline α-Gal A activity: incubated 5 days in absence of migalastat; for 10 μM migalastat α-Gal A activity: incubated 5 days with 10 μM migalastat; for 10 μM migalastat α-Gal A activity (% WT): with 10 μM migalastat, 5 days. The method in brief:
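Activity reported as 4-MU released (nmol/mg/hr), mean±SEM, from lysates of transiently transfected HEK-293 cells expressing mutant α-Gal A, cultured with or without 10 μM migalastat.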

B1: N355S (protein)
chain: MQLRNPELHLGCALALRFLALVSWDIPGARALDNGLARTPTMGWLHWERFMCNLDCQEEPDSCISEKLFMEMAELMVSEGWKDAGYEYLCIDDCWMAPQRDSEGRLQADPQRFPHGIRQLANYVHSKGLKLGIYADVGNKTCAGFPGSFGYYDIDAQTFADWGVDLLKFDGCYCDSLENLADGYKHMSLALNRTGRSIVYSCEWPLYMWPFQKPNYTEIRQYCNHWRNFADIDDSWKSIKSILDWTSFNQERIVDVAGPGGWNDPDMLVIGNFGLSWNQQVTQMALWAIMAAPLFMSNDLRHISPQAKALLQDKDVIAINQDPLGKQGYQLRQGDNFEVWERPLSGLAWAVAMISRQEIGGPRSYTIAVASLGKGVACNPACFITQLLPVKRKLGFYEWTSRLRSHINPTGTVLLQLENTMQMSLKDLL
On to B1, for which the “Absolute increase (% WT)” value was found to be 30.8 % WT, the Relative increase was determined as 2.2, the “Baseline α-Gal A activity (% WT)” value amounted to 25.9 ± 1.6 % WT and the “Baseline α-Gal A activity” value is 11397 ± 817 nmol/mg/h. The “10 μM migalastat α-Gal A activity” value worked out at 24820 ± 1396 nmol/mg/h and the “10 μM migalastat α-Gal A activity (% WT)” value is 56.7 ± 2.8 % WT.

B2: I359L (protein)
chain: MQLRNPELHLGCALALRFLALVSWDIPGARALDNGLARTPTMGWLHWERFMCNLDCQEEPDSCISEKLFMEMAELMVSEGWKDAGYEYLCIDDCWMAPQRDSEGRLQADPQRFPHGIRQLANYVHSKGLKLGIYADVGNKTCAGFPGSFGYYDIDAQTFADWGVDLLKFDGCYCDSLENLADGYKHMSLALNRTGRSIVYSCEWPLYMWPFQKPNYTEIRQYCNHWRNFADIDDSWKSIKSILDWTSFNQERIVDVAGPGGWNDPDMLVIGNFGLSWNQQVTQMALWAIMAAPLFMSNDLRHISPQAKALLQDKDVIAINQDPLGKQGYQLRQGDNFEVWERPLSGLAWAVAMINRQELGGPRSYTIAVASLGKGVACNPACFITQLLPVKRKLGFYEWTSRLRSHINPTGTVLLQLENTMQMSLKDLL
For B2, the “Absolute increase (% WT)” value was found to be 25.6 % WT, the Relative increase is 1.7, the “Baseline α-Gal A activity (% WT)” value is given as 39.1 ± 1.8 % WT and the “Baseline α-Gal A activity” value was 16254 ± 909 nmol/mg/h. Also, the “10 μM migalastat α-Gal A activity” value amounted to 26791 ± 1713 nmol/mg/h and the “10 μM migalastat α-Gal A activity (% WT)” value was 64.7 ± 3.9 % WT.

B3: I359F (protein)
chain: MQLRNPELHLGCALALRFLALVSWDIPGARALDNGLARTPTMGWLHWERFMCNLDCQEEPDSCISEKLFMEMAELMVSEGWKDAGYEYLCIDDCWMAPQRDSEGRLQADPQRFPHGIRQLANYVHSKGLKLGIYADVGNKTCAGFPGSFGYYDIDAQTFADWGVDLLKFDGCYCDSLENLADGYKHMSLALNRTGRSIVYSCEWPLYMWPFQKPNYTEIRQYCNHWRNFADIDDSWKSIKSILDWTSFNQERIVDVAGPGGWNDPDMLVIGNFGLSWNQQVTQMALWAIMAAPLFMSNDLRHISPQAKALLQDKDVIAINQDPLGKQGYQLRQGDNFEVWERPLSGLAWAVAMINRQEFGGPRSYTIAVASLGKGVACNPACFITQLLPVKRKLGFYEWTSRLRSHINPTGTVLLQLENTMQMSLKDLL
Take B3: the “Absolute increase (% WT)” value is 14.1 % WT, the Relative increase amounted to 2.1, the “Baseline α-Gal A activity (% WT)” value amounted to 13 ± 1 % WT and the “Baseline α-Gal A activity” value came to 6138 ± 568 nmol/mg/h. Besides, the “10 μM migalastat α-Gal A activity” value was 13144 ± 1091 nmol/mg/h and the “10 μM migalastat α-Gal A activity (% WT)” value stood at 27 ± 1.6 % WT.

B4: Q357E (protein)
chain: MQLRNPELHLGCALALRFLALVSWDIPGARALDNGLARTPTMGWLHWERFMCNLDCQEEPDSCISEKLFMEMAELMVSEGWKDAGYEYLCIDDCWMAPQRDSEGRLQADPQRFPHGIRQLANYVHSKGLKLGIYADVGNKTCAGFPGSFGYYDIDAQTFADWGVDLLKFDGCYCDSLENLADGYKHMSLALNRTGRSIVYSCEWPLYMWPFQKPNYTEIRQYCNHWRNFADIDDSWKSIKSILDWTSFNQERIVDVAGPGGWNDPDMLVIGNFGLSWNQQVTQMALWAIMAAPLFMSNDLRHISPQAKALLQDKDVIAINQDPLGKQGYQLRQGDNFEVWERPLSGLAWAVAMINREEIGGPRSYTIAVASLGKGVACNPACFITQLLPVKRKLGFYEWTSRLRSHINPTGTVLLQLENTMQMSLKDLL
On to B4, for which the “Absolute increase (% WT)” value is on record as 41.5 % WT, the Relative increase is given as 1.9, the “Baseline α-Gal A activity (% WT)” value came out at 42.8 ± 2.1 % WT and the “Baseline α-Gal A activity” value came out at 15264 ± 877 nmol/mg/h. Further, the “10 μM migalastat α-Gal A activity” value turned out to be 28922 ± 1194 nmol/mg/h and the “10 μM migalastat α-Gal A activity (% WT)” value was 84.3 ± 6.3 % WT.

B5: I359S (protein)
chain: MQLRNPELHLGCALALRFLALVSWDIPGARALDNGLARTPTMGWLHWERFMCNLDCQEEPDSCISEKLFMEMAELMVSEGWKDAGYEYLCIDDCWMAPQRDSEGRLQADPQRFPHGIRQLANYVHSKGLKLGIYADVGNKTCAGFPGSFGYYDIDAQTFADWGVDLLKFDGCYCDSLENLADGYKHMSLALNRTGRSIVYSCEWPLYMWPFQKPNYTEIRQYCNHWRNFADIDDSWKSIKSILDWTSFNQERIVDVAGPGGWNDPDMLVIGNFGLSWNQQVTQMALWAIMAAPLFMSNDLRHISPQAKALLQDKDVIAINQDPLGKQGYQLRQGDNFEVWERPLSGLAWAVAMINRQESGGPRSYTIAVASLGKGVACNPACFITQLLPVKRKLGFYEWTSRLRSHINPTGTVLLQLENTMQMSLKDLL
Regarding B5, the “Absolute increase (% WT)” value came out at 29.6 % WT, the Relative increase is listed as 1.3, the “Baseline α-Gal A activity (% WT)” value is 101.6 ± 6.3 % WT and the “Baseline α-Gal A activity” value is 37737 ± 2594 nmol/mg/h. Further, the “10 μM migalastat α-Gal A activity” value came out at 48055 ± 2727 nmol/mg/h and the “10 μM migalastat α-Gal A activity (% WT)” value was 131.2 ± 8.4 % WT.

B6: I359N (protein)
chain: MQLRNPELHLGCALALRFLALVSWDIPGARALDNGLARTPTMGWLHWERFMCNLDCQEEPDSCISEKLFMEMAELMVSEGWKDAGYEYLCIDDCWMAPQRDSEGRLQADPQRFPHGIRQLANYVHSKGLKLGIYADVGNKTCAGFPGSFGYYDIDAQTFADWGVDLLKFDGCYCDSLENLADGYKHMSLALNRTGRSIVYSCEWPLYMWPFQKPNYTEIRQYCNHWRNFADIDDSWKSIKSILDWTSFNQERIVDVAGPGGWNDPDMLVIGNFGLSWNQQVTQMALWAIMAAPLFMSNDLRHISPQAKALLQDKDVIAINQDPLGKQGYQLRQGDNFEVWERPLSGLAWAVAMINRQENGGPRSYTIAVASLGKGVACNPACFITQLLPVKRKLGFYEWTSRLRSHINPTGTVLLQLENTMQMSLKDLL
B6: the “Absolute increase (% WT)” value worked out at 12.5 % WT, the Relative increase is recorded as 1.6, the “Baseline α-Gal A activity (% WT)” value came out at 20.8 ± 1.2 % WT and the “Baseline α-Gal A activity” value is 10862 ± 655 nmol/mg/h. In addition, the “10 μM migalastat α-Gal A activity” value is 17332 ± 879 nmol/mg/h and the “10 μM migalastat α-Gal A activity (% WT)” value was 33.3 ± 1.8 % WT.

B7: N355Y (protein)
chain: MQLRNPELHLGCALALRFLALVSWDIPGARALDNGLARTPTMGWLHWERFMCNLDCQEEPDSCISEKLFMEMAELMVSEGWKDAGYEYLCIDDCWMAPQRDSEGRLQADPQRFPHGIRQLANYVHSKGLKLGIYADVGNKTCAGFPGSFGYYDIDAQTFADWGVDLLKFDGCYCDSLENLADGYKHMSLALNRTGRSIVYSCEWPLYMWPFQKPNYTEIRQYCNHWRNFADIDDSWKSIKSILDWTSFNQERIVDVAGPGGWNDPDMLVIGNFGLSWNQQVTQMALWAIMAAPLFMSNDLRHISPQAKALLQDKDVIAINQDPLGKQGYQLRQGDNFEVWERPLSGLAWAVAMIYRQEIGGPRSYTIAVASLGKGVACNPACFITQLLPVKRKLGFYEWTSRLRSHINPTGTVLLQLENTMQMSLKDLL
For the molecule B7, the “Absolute increase (% WT)” value was determined as 26.6 % WT, the Relative increase stood at 2.8, the “Baseline α-Gal A activity (% WT)” value is reported as 15.2 ± 1 % WT and the “Baseline α-Gal A activity” value is 5994 ± 461 nmol/mg/h. The “10 μM migalastat α-Gal A activity” value stood at 16930 ± 1745 nmol/mg/h and the “10 μM migalastat α-Gal A activity (% WT)” value was found to be 41.8 ± 3.3 % WT.

B8: R356L (protein)
chain: MQLRNPELHLGCALALRFLALVSWDIPGARALDNGLARTPTMGWLHWERFMCNLDCQEEPDSCISEKLFMEMAELMVSEGWKDAGYEYLCIDDCWMAPQRDSEGRLQADPQRFPHGIRQLANYVHSKGLKLGIYADVGNKTCAGFPGSFGYYDIDAQTFADWGVDLLKFDGCYCDSLENLADGYKHMSLALNRTGRSIVYSCEWPLYMWPFQKPNYTEIRQYCNHWRNFADIDDSWKSIKSILDWTSFNQERIVDVAGPGGWNDPDMLVIGNFGLSWNQQVTQMALWAIMAAPLFMSNDLRHISPQAKALLQDKDVIAINQDPLGKQGYQLRQGDNFEVWERPLSGLAWAVAMINLQEIGGPRSYTIAVASLGKGVACNPACFITQLLPVKRKLGFYEWTSRLRSHINPTGTVLLQLENTMQMSLKDLL
As to B8, the “Absolute increase (% WT)” value worked out at 43.7 % WT, the Relative increase came out at 2.8, the “Baseline α-Gal A activity (% WT)” value came to 24.4 ± 1 % WT and the “Baseline α-Gal A activity” value was determined as 10680 ± 518 nmol/mg/h. Moreover, the “10 μM migalastat α-Gal A activity” value is 29548 ± 2017 nmol/mg/h and the “10 μM migalastat α-Gal A activity (% WT)” value was 68.1 ± 4.6 % WT.

The values above are taken from patent US11833164B2, “Methods of treating Fabry disease in patients having a mutation in the GLA gene” (Amicus Therapeutics, Inc., priority 2019, dated 2023).
